This is an account of results in article PMC4708090 (Biochemistry, 2015).

B1: wt BfrB (Pseudomonas aeruginosa bacterioferritin B, 24-mer) (natural protein)
chain: not shown
B2: wt Bfd (C43S mutant of P. aeruginosa bacterioferritin-associated ferredoxin) (natural protein, Pseudomonas aeruginosa)
chain: MYVCLCQGVTDNQIRDAIYEGCCSYREVREATGVGTQCGKCASLAKQVVRETLNDLQSAQPVPAFGTTAFVAA
B3: Y2F Bfd (natural protein, Pseudomonas aeruginosa)
chain: B2 chain with Y2F
B4: L5A Bfd (natural protein, Pseudomonas aeruginosa)
chain: B2 chain with L5A
B5: K40A Bfd (natural protein, Pseudomonas aeruginosa)
chain: B2 chain with K40A

Series [1] deals with the molecule itself. Put plainly: SEC.
Series [2] has as its target B2. The series can be described thus: ITC.
The target in series [3] is B1. The series can be described thus: SPR. A general note: Surface plasmon resonance follows binding to a sensor surface in real time, without labels.
In series [4] the target is B1. Put plainly: SPR. This is another data set of the same source.
The target of series [5] is B1. Put plainly: SPR. This is another data set of the same source.
In series [6] the target is B1. The series can be described thus: ITC.
For series [7], the target named is E85A BfrB (Pseudomonas aeruginosa, UniProt Q9HY79 1-158, E85A). Put plainly: SPR.
The target in series [8] is L68A BfrB (Pseudomonas aeruginosa, UniProt Q9HY79 1-158, L68A). The series can be described thus: SPR.
In series [9] the target is E81A BfrB (Pseudomonas aeruginosa, UniProt Q9HY79 1-158, E81A). Put plainly: SPR.
Series [10] addresses B1. Put plainly: SPR. This is another data set of the same source.

Where a chain is given by its changes, count along the chain named. Names may count otherwise.

As to B1, the binding result in [1] is listed as “binds”. This molecule also displayed a dH in [2] of 1.6 ± 0.3 kcal/mol.

As to B2, the Kd in series [3] was found to be 3.3 ± 0.5 µM; in [4], 2.6 ± 0.4 µM; in [6] it was 4.2 ± 0.4 µM; in [7], 590 ± 2 µM; in series [8], 298 ± 20.5 µM; in series [9] it was 258 ± 21.5 µM. In series [4], this molecule returned a koff of 0.069 ± 0.01 s⁻¹. In [4], the kon was 26000 ± 2000 M⁻¹ s⁻¹. In addition, the “stoichiometry N” value in series [5] came to 12.7 Bfd per 24-mer BfrB.

B3 displayed a Kd in [10] of 10.7 ± 0.2 µM.

For B4, the Kd in series [10] stood at 82 ± 2.5 µM.

In series [10], B5 registered a Kd of 7.7 ± 0.5 µM.

Broadly, the Kd is the free concentration of one partner at which half of the binding sites on the other are occupied at equilibrium, for simple one-to-one binding. A low value points to a tighter complex. As usually defined, the koff is the rate constant with which the complex falls apart. Read a low koff as slow dissociation. As usually defined, the kon is the rate constant with which the complex forms. A high value points to fast association. What is called stoichiometry N is a count of units in the complex or per binding partner.
